Laboratory results as given in US20080008713A1.

Target: mouse TNFR1 on L929 cells (mouse) (UniProt P25118)
Test: cell-based or functional assay

Chain of mouse TNFR1 on L929 cells (mouse) (P25118 30-454): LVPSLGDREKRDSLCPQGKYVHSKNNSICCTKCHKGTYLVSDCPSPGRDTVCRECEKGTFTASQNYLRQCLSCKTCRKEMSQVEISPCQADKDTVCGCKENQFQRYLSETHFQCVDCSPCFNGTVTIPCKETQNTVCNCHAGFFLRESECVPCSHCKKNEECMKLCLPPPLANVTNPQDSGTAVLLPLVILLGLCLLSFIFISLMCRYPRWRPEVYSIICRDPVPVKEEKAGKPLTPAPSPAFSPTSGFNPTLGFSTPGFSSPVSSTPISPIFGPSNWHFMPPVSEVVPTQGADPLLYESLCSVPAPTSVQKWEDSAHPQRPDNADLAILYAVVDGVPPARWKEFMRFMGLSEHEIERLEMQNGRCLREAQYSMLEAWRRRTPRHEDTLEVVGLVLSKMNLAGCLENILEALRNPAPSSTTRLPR

| Substance | ND50 of cell killing, modified L929 assay without TNF-α | ND50 of induced cytotoxicity, modified L929 assay without TNF-α |
| --- | --- | --- |
| anti-TNFR1 antibody MAB430 (R&D Systems) | 10 nM | – |
| anti-TNFR1 antibody AF-425-PB (R&D Systems) | – | 100 pM |
